Experimental data: US9605038B2, “Fusion peptide comprising dhFas-1 domain and MMP substrate and use thereof for preventing and treating rheumatoid arthritis” (Kyungpook National University Industry-Academic Cooperation …, priority 2010, dated 2017)
“Also recorded” adds a separate entry of the source.

B1: MFK12: a peptide having mdhFas-1 (as a basic structure) linked to an RGDSP (SEQ ID NO: 9) peptide (protein)
chain: QAMPPEELNKLLANAKELTNILKYHIGDEILVSGGIGALVRLKSLQGDKLEVSSKNNVVSVNKEPVAETDIMEFGGRGDSPDDDDDLE
modifications: MFK12
B2: hsdhFas-1: peptide prepared by removing H1 and H2 regions from the fourth fas-1 domain of human βig-h3 (protein)
chain: RALPPRERSRLLGDAKELANILKYHIGDEILVSGGIGALVRLKSLQGDKLEVSLKNNVVSVNKEPVAEPDIM
modifications: hsdhFas-1
notes: peptide prepared by removing H1 and H2 regions from the fourth fas-1 domain of human βig-h3

Key:
[1] = tested on: mouse fibroblast (NIH3T3); assay: βig-h3-mediated cell adhesion test, NIH3T3; assay type: cell-based; details: NIH3T3, βig-h3 5 ug/ml coat
Procedure: (§1) Human βig-h3 was introduced into a 96-well plate at a concentration of 5 ug/ml, and coated for 14 hours at 4° C. In DMEM+0.5% BSA (Bovine Serum Albumin) culture medium, human fibroblast (NIH3T3) was introduced, and hsdhFas-1 peptide at concentrations was injected thereto, followed by mixing. The resultant mixture was cultured at 37° C. for 30 minutes, and plated on a coated well. It was cultured for 2 hours, and washed with PBS (phosphate buffered saline) so as to remove unattached cells, and then added with a substrate (4-Nitrophenyl N-acetyl-β-D-glucosaminide, Sigma, U.S.) to be activated by β-N-acetylglucosaminidase within the cell, followed by culturing at 37° C. for 1 hour. Then, a glycine EDTA solution (0.5M EDTA, 50 mM glycine, pH 10.4) was added thereto, and the coloring extent according to the number of attached cells was measured by absorbance.
Also, a structurally modified peptide of a fas-1 domain of mouse βig-h3 was synthesized as a recombinant peptide (hereinafter, referred to as ‘mdhFas-1peptide’, see FIG. 2), and a mouse cell line, that is, NIH3T3 cell line, was used to test the inhibiting effect by mdhFas-1 peptide on adhesion and migration of a Synovial membrane cell in the same manner as that in the test using human βig-h3.
as §1, with “βig-h3” for “Human βig-h3”, “mouse” for “human”, “MFK23, MFK24, MFK25 or MFK27” for “hsdhFas-1 peptide”

NIH3T3 = assay: βig-h3-mediated cell migration test (transwell), NIH3T3; assay type: cell-based, mouse; details: 7 hours
Procedure: In the lower compartment of a transwell filter having an 8 um hole size allowing cells to be migrated, βig-h3 was cultured at 4° C. for 12 to 14 hours and coated. In DMEM+0.5% BSA culture medium, NIH3T3 was introduced, and administered with MFK23, MFK24 or MFK25 at concentrations, followed by mixing. The resultant mixture was cultured at 37° C. for 30 minutes, inoculated into the upper chamber of the coated well, and cultured for 7 hours at 37° C. Then, the cells migrated to the lower compartment of the filter were fixed by paraformaldehyde, and strained by a crystal violet. The cells […] remaining in the upper chamber were wiped out and the number of cells migrated to the lower compartment was microscopically counted.

[2] = tested on: collagen-induced arthritis (CIA) mouse model; assay: Arthritis therapeutic effect in CIA mouse (clinical arthritis index); assay type: in vivo
Procedure: A CIA mouse model having the similar characteristic to that of human rheumatoid arthritis was prepared according to the description in a known literature (Protocol for the successful induction of collagen-induced arthritis (CIA) and collagen antibody-induced arthritis (CAIA) in mice. Chondrex, Redmond, Wash.): Bovine type 2 collagen 100 ug was mixed with Freund's complete adjuvant, and hypodermically inoculated into the tail of the mouse. After 3 weeks, bovine type 2 collagen 100 ug was mixed with Freund's incomplete adjuvant, and inoculated again into the tail of the mouse. Then, the mouse was used in the experiment.
In order to find out the therapeutic effect of arthritis in a CIA model, for four weeks from the onset (the 23rd day) of arthritis following the second injection of the bovine type 2 collagen, MFK23 or MFK24 was daily injected into the abdominal cavity in doses of 0.1 mg/kg, 1 mg/kg, 10 mg/kg and 30 mg/kg. As a control group, the same amount of PBS was injected into the abdominal cavity. From the 23rd day to the 50th day, by using a Clinical arthritis index, the severity of arthritis was daily determined. The determination was based on the following data.
0; no symptom, 1; edema in one articulation or light edema, 2; severe edema in 2 or more articulations, 3; severe edema in most articulations, 4; severe edema in the whole of legs.

[3] = tested on: foot tissue of CIA mouse (Synovial membrane, cartilage, bones; CD31, ICAM-1); assay: Histologic and immunohistochemistry test on foot tissue of CIA mouse; assay type: in vivo; details: CIA mouse, 50th day
Procedure: In order to determine the action mechanism of an arthritis therapeutic effect in a CIA model, on the 50th day following the second injection of the bovine type 2 collagen (after 4 weeks from the onset (the 23rd day) of arthritis following the second injection of the bovine type 2 collagen), foot tissues of treatment groups were separated and subjected to histologic analysis. Then, in the tissues, a change in the expression of inflammatory mediators was examined.
A tissue sample was prepared by the following process. Skin on the foot tissue was removed. Then, the tissue was fixed in 10% formalin solution for 2 days, and demineralized in 10% EDTA solution. The demineralized tissue was subjected to a dehydrating process and a clearing process, paraffin-embedded, and was made into a fragment with a thickness of 3 um by a microtome. The tissue fragment was deparaffinized and re-dehydrated by 100% xylene and ethanol, and then non-specific peroxidase within the tissue was blocked by a solution of 0.3% hydrogen peroxide dissolved in 100% methanol.
In order to carry out an immunohistochemistry test, binding of non-specific protein was blocked by 5% BSA. Then, the tissue was cultured, together with each primary antibody (as endothelial cell markers, an antibody to CD31, and an antibody to ICAM-1 (intercellular adhesion molecule-1)), at 4° C. for 12 to 14 hours, and washed with washing buffer (0.1% BSA, 0.2% gelatin, 0.05% saponin). It was cultured together with a secondary antibody labeled with biotin at room temperature for 30 minutes, was washed, reacted with Vectastatin ABC kit (Vector Laboratories, U.S.), and was mounted with Eukitt mounting media (Fluka, Germany) for observation.

[4] = tested on: TNF-a, RANKL, IL-1β, CCL-2, MMP-1, MMP-3, IL-6, VCAM-1; assay: Semiquantitative reverse transcription PCR of inflammatory mediators in CIA mouse foot tissue; assay type: in vivo; details: CIA mouse, 30 mg/kg, FIG. 26
Procedure: The distribution of inflammation in the foot tissue may be somewhat differently observed according to the regions, and its quantitative research is difficult. Thus, in the hind leg of a mouse CIA model treated with MFK24, the change in inflammatory mediators according to the onset of arthritis was measured by a semiquantitative reverse transcription PCR method using a Taqman probe, as described below.
From a mouse CIA model, a foot tissue was separated, and its skin was removed. The remaining tissue was grinded by a tissue homogenizer, and an extraction reagent (Easy-spim™, Intron) was used to extract all RNAs. They were quantified, and for 7 μg of RNA, a reverse transcriptase reaction was carried out by using AMV reverse transcriptase (Roche, 0.5 ul), oligo dT (Roche, 1 ul), and 10 mM dNTP (Takara, 2 ul) RNase inhibitor (Roche, 0.1 ul). For TNF-a, RANKL, IL-1β, CCL-2, MMP-1, MMP-3, IL-6, VCAM-1 and 18S RNA of a mouse, semiquantitative PCR was performed by using primers (Bioneer, Daejeon) and a Taqman probe (Roche, Germany) in LC480 (Roche, Germany), so as to determine the number of transcripts. Quantitative analysis of the transcripts was performed through comparison with 18S RNA transcripts. The primer pairs for the semiquantitative PCR are noted in [table8].

ICAM-1 and RANKL = assay: Immunoblot of ICAM-1 and RANKL in CIA mouse model; assay type: in vivo; details: 30 mg/kg, FIG. 27
[5] = Toxicity test in CIA mouse (weight, serologic test, blood test); details: CIA mouse, 22nd day vs 48th day
Procedure: On the 48th day, a serologic test and a blood test were carried out.

[6] = tested on: human fibroblast (NIH3T3); assay: Cell adhesion test on human βig-h3 coated plate (hsdhFas-1); assay type: cell-based; details: human βig-h3 5 ug/ml coat, FIG. 3
Procedure: as §1

Molecule	βig-h3-mediated cell adhesion [1]	βig-h3-mediated cell migration (NIH3T3)	arthritis inhibition (clinical arthritis index) ([2]; 10 mg/kg daily)	arthritis inhibition (clinical arthritis index) ([2]; 30 mg/kg daily)	arthritis inhibiting effect (clinical arthritis index), in words ([2]; daily into the abdominal cavity)	proliferation of Synovial membrane tissue cells ([3]; 10 mg/kg)	state of the articulation region ([3]; 10 mg/kg)	vascularization induction and cell adhesion protein expression (CD31, ICAM-1) ([3]; 10 mg/kg)	proliferation of Synovial membrane tissue cells ([3]; 30 mg/kg)	shape of the foot tissue ([3]; 30 mg/kg)	vascularization induction and adhesion protein expression (CD31, ICAM-1) ([3]; 30 mg/kg)	expression levels of TNF-a, IL-6, IL-1β, ICAM-1, and RANKL vs arthritis control group [4]	expression levels of ICAM-1 and RANKL vs arthritis control group (ICAM-1 and RANKL)	body weight change compared to control group [5]	βig-h3-mediated adhesion [6]
B1	inhibited the adhesion and migration of a cell even at a lower concentration than that in Comparative Example 1; also recorded: concentration-dependently inhibited	inhibited the adhesion and migration of a cell even at a lower concentration than that in Comparative Example 1; also recorded: concentration-dependently inhibited	about 27%	about 60%	concentration-dependently inhibited	hyper-proliferated	the articulation region was destroyed	increased as much as that in the control group	inhibited compared to that in the control group	nearly normal	reduced	reduced levels	reduced levels	abnormal findings in the weight change were not observed	
B2		concentration-dependently inhibited													concentration-dependently inhibited
